Measured values reported in patent US20110305783A1, “Method and pharmaceutical composition for treating psoriasis, squamous cell carcinoma and/or parakeratosis by inhibiting expression of squamous cell carcinoma-related antigen” (Shiseido Company, Ltd., priority 2005, published 2011).
“Also recorded” adds a separate entry of the source. Where two headings read alike, the source gives them in different places. Ends that are not written are not given here. * marks the point of attachment. Cbz = O=C(OCc1ccccc1)*; CH2F = FC*

T1: caspase-14 (Homo sapiens, UniProt P31944)
T1 construct: human caspase-14 is purified in the form of a heterodimer composed of a large subunit (17 KDa) and a small subunit (11 KDa); from tissue; host or cells: human cornified cells (heel stratum corneum)
T1 sequence (P31944 6-146 limits assumed): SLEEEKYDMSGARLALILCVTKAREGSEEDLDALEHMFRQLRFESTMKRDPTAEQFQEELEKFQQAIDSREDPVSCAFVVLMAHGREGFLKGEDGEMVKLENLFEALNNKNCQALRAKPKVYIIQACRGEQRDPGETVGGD
T1 sequence (P31944 153-242 limits assumed): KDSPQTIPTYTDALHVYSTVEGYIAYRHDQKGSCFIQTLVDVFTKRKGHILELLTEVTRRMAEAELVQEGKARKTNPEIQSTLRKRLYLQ

T2: caspase-3 (Homo sapiens, UniProt P42574)
T2 construct: purchased BIOMOL Research Labs, Inc. (Plymouth Meeting, Pa.)
T2 sequence (P42574 29-277): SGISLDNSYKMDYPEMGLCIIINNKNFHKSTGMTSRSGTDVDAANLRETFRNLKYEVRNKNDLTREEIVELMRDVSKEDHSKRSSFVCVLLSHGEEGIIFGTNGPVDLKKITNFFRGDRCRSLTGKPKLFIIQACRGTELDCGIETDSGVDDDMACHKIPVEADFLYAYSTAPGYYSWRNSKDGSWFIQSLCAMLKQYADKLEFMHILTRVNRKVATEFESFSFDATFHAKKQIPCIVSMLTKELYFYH

B1: SCCA-1: recombinant squamous cell carcinoma antigen 1, member of the serpin superfamily, intrinsic inhibitor of caspase-14 (protein)
chain: MNSLSEANTKFMFDLFQQFRKSKENNIFYSPISITSALGMVLLGAKDNTAQQIKKVLHFDQVTENTTGKAATYHVDRSGNVHHQFQKLLTEFNKSTDAYELKIANKLFGEKTYLFLQEYLDAIKKFYQTSVESVDFANAPEESRKKINSWVESQTNEKIKNLIPEGNIGSNTTLVLVNAIYFKGQWEKKFNKEDTKEEKFWPNKNTYKSIQMMRQYTSFHFASLEDVQAKVLEIPYKGKDLSMIVLLPNEIDGLQKLEEKLTAEKLMEWTSLQNMRETRVDLHLPRFKVEESYDLKDTLRTMGMVDIFNGDADLSGMTGSRGLVLSGVLHKAFVEVTEEGAEAAAATAVVGFGSSPTSTNEEFHCNHPFLFFIRQNKTNSILFYGRFSSP

How the values were obtained:
Type in all cases: biochemical
caspase-14 [1] = target: T1, caspase-14; experiment: Inhibitor assay on purified caspase-14, WEHD-MCA hydrolysis activity
Protocol: Caspase-14 was incubated with peptide inhibitors of caspase (consisting of YVAD, VDVAD, DEVD, VEID, IETD, LEHD and DNLD) and class-specific inhibitors of cysteine proteinase (IAA) and serine proteinase (AEBSF). Residual enzyme activity was measured using WEHD-MCA as substrate in the presence of 1.3 M sodium citrate and 5 mM DTT. […] The values are shown as the average values of duplicate assays.
Briefly, the assay mixture was prepared from 45 μl of 0.1 M HEPES buffer (pH 7.5), 0.06 M NaCl, 0.01% CHAPS, 5 mM DTT, 1.3 M sodium citrate and 10 μM WEHD-MCA (all concentrations indicate the final concentrations). An enzyme sample (5 μl) was added to this mixture followed by incubating for 10 to 30 minutes. The reaction was stopped with 150 μl of 0.1 M monochloroacetic acid, and measurements were performed at an excitation wavelength of 355 nm and emission wavelength of 460 nm using Fluoroskan Ascent FL (Thermo Electron Co., Wolsam, Mass.). In the case of the inhibitor assay, caspase-14 and peptide inhibitor were incubated in the assay buffer for 15 minutes, and the assay was started with the addition of 5 μl of 100 μM WEHD-MCA.
Human cornified cells (approx. 14 g) scraped from the heels of healthy individuals were extracted with 0.1 M Tris-HCl (pH 8.0) containing 0.14 M NaCl using a glass homogenizer. A supernatant was obtained after centrifuging at 15,000 g for 60 minutes. After concentrating with Amicon Ultra (Millipore, Mass.) and desalting with the Fast Desalting Column HR10/10 (Amersham Biosciences), the crude product was applied to a HiPrep 16/10 QXL column. […] In addition, hydrolysis activity with respect to Ac-[…]-Glu-His-Asp-methyl-coumarin amide (WEHD-MCA) (Peptide Institute, Inc., Osaka, Japan) was measured for each fraction. Positive fractions were placed on a Mono Q column equilibrated with the same buffer and eluted a maximum NaCl gradient of 1 M. The caspase-14 fraction was further separated by Mono S cationic exchange chromatography. The column was equilibrated with 20 mM acetate buffer (pH 4.5) and eluted at an NaCl gradient of 0 to 1 M. Positive fractions were concentrated and placed on a chromatofocusing Mono P column equilibrated with 25 mM ethanolamine (pH 8.3). The column was eluted while forming a pH gradient from 8 to 5 using 46 ml of Polybuffer (pH 5.0). The caspase-14 was finally purified using Superdex 75 gel chromatography. The protein concentration was determined with the BioRad Protein Assay Kit (BioRad Lab, Hercules, Calif.).

caspase-14 [2] = target: T1, caspase-14; experiment: ICAD decomposition by purified caspase-14, Western blot; conditions: pre-incubation with 10 μM SCCA-1, kosmotropic salt, Western blot (FIG. 10B)
Protocol: (§1) ICAD decomposition was only observed in the presence of kosmotropic salt. […] When SCCA-1 was added to the mixture, ICAD decomposition was virtually not detected, and there were still no effects after incubating for 16 hours (B). (C) The results are shown of investigating hydrolysis activity on synthetic caspase substrates in the presence of kosmotropic salt.
The inventors of the present invention tested the effects of caspase-14 on ICAD during the course of searching for natural substrates of caspase-14. This is because disappearance of the nucleus is an extremely important event for terminal differentiation.
(§2) Although SCCA-1 is a member of the serpin superfamily, it inhibits cysteine proteases such as papain and cathepsin L (Takeda, A., et al., Biol. Chem., 383, 1231-6 (2002)). […] Thus, the inventors of the present invention conducted a test as to whether or not SCCA-1 is able to inhibit caspase members. Kosmotropic conditions were used in the case of caspase-14. […] Recovery of enzyme activity was not observed even if the incubation time increased.

[3] = test system: Recombinant caspases-1 to 10; experiment: Recombinant caspases incubated with SCCA-1, hydrolysis of synthetic caspase substrates; conditions: recombinant caspase incubated with SCCA-1 (FIG. 10C)
Protocol: as §1
Benzyloxycarbonyl (Z)-YVAD-FMK, Z-VDVSD-FMK, Z-DEVD-FMK, Z-VEID-FMK, Z-IETD-FMK, Z-LEHD-FMK and Z-VAD-FMK were purchased from BioVision (Mountain View, Calif.). Recombinant caspases-1 to 10 were obtained from BIOMOL Research Labs, Inc. (Plymouth Meeting, Pa.).
as §2

caspase-3 = target: T2, caspase-3; experiment: Caspase-3 activity with SCCA-1, synthetic substrate DEVD-MCA or natural substrate ICAD
Description: The enzymatic characteristics of purified caspase-14 were extremely unique. […] The inventors of the present invention determined for the first time that SCCA-1 is an intrinsic inhibitor against caspase-14. The most unique characteristic of SCCA-1 is its remarkable specificity for caspase-14. Other members of caspase-1 to -10 are not affected by SCCA-1. […] Crm A belongs to the serpin superfamily and is known to be able to inhibit a large number of caspases including caspase-1 and caspase-8 (Gagliardini, V., et al., Science 263, 826-(1994)). XIAP is known to inhibit caspase-3, -7 and -9 (Srinivasula, S. M., et al., Nature 410, 112-6 (2001)). Since the anti-apoptotic protein p35 inhibits caspase-1, -3, -6, -7, -8 and -10, it is considered to have a broader spectrum.

[4] = inhibitors at 5, 2.5 and 1.25 μM, WEHD-MCA substrate, 1.3 M sodium citrate, 5 mM DTT

Row | Molecule | Inhibitory effect on purified caspase-14 activity (caspase-14 [1]; [4]) | also measured
1 | NCCc1ccc(S(=O)(=O)F)cc1 [ABBSF, 4-(2-aminoethyl)benzenesulfonyl fluoride] | did not exhibit significant inhibitory effects | 
2 | O=C(O)CI [IAA, iodoacetic acid] |  | Inhibitory effect on purified caspase-14 activity (caspase-14 [1]): did not exhibit significant inhibitory effects
3 | Benzyloxycarbonyl (Z)-YVAD-FMK | extremely potent inhibitory effects; also recorded: most potent inhibitory action | 
4 | DEVD-FMK: caspase-3 inhibitor | sensitivity | 
5 | IETD-FMK: caspase-8 inhibitor (Cbz-IETD-CH2F) | sensitivity | 
6 | LEHD-FMK: caspase-9 inhibitor (Cbz-LEHD-CH2F) | sensitivity | 
7 | VAD-FMK: pan-caspase inhibitor (Cbz-Val-Ala-Asp-CH2F) | sensitivity; also recorded: one of the most potent caspase-14 inhibitors | 
8 | VDVAD-FMK: caspase-2 inhibitor (VDVAD-CH2F) | sensitivity | 
9 | VEID-FMK: peptide inhibitor of caspase (Cbz-VEID-CH2F) | hardly any effect | 
10 | B1 |  | Inhibition of ICAD cleavage by caspase-14 (caspase-14 [2]): inhibited decomposition of ICAD; also recorded: completely inhibited; Effect on enzyme activity of caspase members (1 to 10) [3]: None of the caspase members (1 to 10) were affected; Inhibition of caspase-3 activity (caspase-3): did not inhibit
